Reference: patent publication US12077763B2, “RNA-based control of powdery mildew” (Greenlight Biosciences, Inc., priority 2021, dated 2024)

System: E. necator
Experiment: Leaf disc assay, dry inoculum (settling tower), decrease in disease severity / hyphal growth (Example 2)
Conditions: decrease in disease severity (hyphal growth) relative to untreated control, value ± SE; for % decrease =/− SE TP1: time point 1 (untreated control hyphal growth ≥50%); for % decrease =/− SE TP2: time point 2

B1: GS3474 (nucleic acid)
sense: UAAGCAAUUUGAUGAUGAUCAUUAUGGUCUGGAGAAAGUCAAGAAAAGACUCCUUGAAUAUUUAGCGGUUCUCAAACUAAAGCAAUCAAUAAAUCAAGACAUUGACAUCAAGAUUAAGAAGGCAUCUGAAGAAAGAGCACAUGAAAAACUAGAAAUCUUAAAAAGUCAGAGAAUGGUUGAUAAAUCGCCUAUCUUGCUACUCGUUGGUCCUCCAGGUGUAGGUAAAACAAGCCUCGCAAAAUCUGUUGCAACAGCACUUGGUCGUAAAUUUCAUCGAAUUUCUCUUGGUGGUGUUCGGGAUGAGGCUGAAAUUAGGGGACAUCGUCGUACUUACGUUGCAGCUAUGCCAGGCCUCAUAAUUCAAGGGCUUAAGAAAGUUGGAGUGUGCAAUCCCGUUUUUCUUUUAGAUGAAAUUGAUAAAAUUGGGAGUUCUAAUUUCCAAGGUGAUCCUAGCGCUGCAAUGCUCGAAGUCCUCGAUCCAGAGCAGAAUCACAGUUUUACAGACCACUACGUCAAUAUUCCAGUAGACCUUAGCAAAGUUCUGUUUAUCGCUACUGCAAAUAGUCUGGAUACUAUUUCACCACCACUCUUAGACAGA
antisense: AAUGACAUGGAUUAUGUUGAACAUCAUUUUGGUCCUGCAGGCUUAAAUCGACAGGACAUUGUCCAUACAUACAGAACUCUUAAUGCAAAGAUUAUUAAAGCUGACCUCCUUCGUUAUUUGAUUAUGUAUGUGGAAGGAGGUCUAUACGCUGACAUUGAUGUCGAAGCUUUACGUCCAAUUGAACGUUUUAUUCCAGAGCGAUGGAACGAGAAAGACAUUGAUAUGAUUGUAGGGGUCGAGAUUGAUAUGCCGCAUUAUUCCGAUCACCCUAUUCUUGGUCCUAAAUCUAAAUCAUUUUGCCAAUGGACAUUUAUGUGCAAGCCACGUCUACCGGUGAUGAUGCAAUUAAUUGAUAAUAUUAUCGUCUGGCUCAAUCAGCUUUCCCGA
- % decrease =/− SE TP1: 17 ± 5%
- % decrease =/− SE TP2: 9 ± 8%

B2: GS3472 (nucleic acid)
sense: UUAUUUGUGGCGACCUACCGAAAAUAAUCGAAGAUUCGCAAUGAGUGAUGAGUUAGCACAGGACGAUGAAGGUUUUGAAAUAUCCGACUUUGGAGUUGAAGACGAUGAAAUAGAGUCUACUAUAGGCCAAAAAGAAGAUAGAGAUCAAAGGCCAGAAGAGACGAGGUACAAUCCUGCGCCGAAAAAUUCCGGACGAAAGACUGUAAAAAAUACAACACGUGAGAGCUUAGAAAGAGAAACGAUAUUUACUGUUGGUGAAGACGGGGACAAAUGGUCAAAUAAUGAUAGUGACGAGGAGCAUGUUAAUCUCGUUAGUGGGUCAAACAAGCCUUCUUAGAUUUACGACAAUUUUUUU
antisense: AAAAAAAUUGUCGUAAAUCUAAGAAGGCUUGUUUGACCCACUAACGAGAUUAACAUGCUCCUCGUCACUAUCAUUAUUUGACCAUUUGUCCCCGUCUUCACCAACAGUAAAUAUCGUUUCUCUUUCUAAGCUCUCACGUGUUGUAUUUUUUACAGUCUUUCGUCCGGAAUUUUUCGGCGCAGGAUUGUACCUCGUCUCUUCUGGCCUUUGAUCUCUAUCUUCUUUUUGGCCUAUAGUAGACUCUAUUUCAUCGUCUUCAACUCCAAAGUCGGAUAUUUCAAAACCUUCAUCGUCCUGUGCUAACUCAUCACUCAUUGCGAAUCUUCGAUUAUUUUCGGUAGGUCGCCACAAAUAA
- % decrease =/− SE TP1: 28 ± 5%
- % decrease =/− SE TP2: 22 ± 6%

B3: GS3466 (nucleic acid)
sense: CACGAAUACGUGUAAUUCCUUCUCUCAUGAUACUUUCUCGUUUCUCACAUUGCUUUUUGAAUUUAGAAAAUGCUAGCGUUUCUAAAUCUUUUUGUUGAGCUUUUAAAUCGUUGAUCAUGGCCAUUUGCUCGUCAAUUUUUACUAAAAAGUCCUUGACAUGCCUAUUUACAUUGAAUACGUUUCUGGUAACCUUGGUUUGAAUAUUUUUUGCUCGAUUUGCAUAACGCAAUGUAUUCUGAGUCUCAUCAAAAUGUGCACUAGACGGACUUACGCAAACAAUCAUUACGGUCUUGCAAUUGCCACCGAGAGAAAACUUUAGCAGUCGAGUUAACUUUGAAUUCCGAUAUGGAACGUGGUUUUUUUUUCGGGGAUCACAAA
antisense: UUUGUGAUCCCCGAAAAAAAAACCACGUUCCAUAUCGGAAUUCAAAGUUAACUCGACUGCUAAAGUUUUCUCUCGGUGGCAAUUGCAAGACCGUAAUGAUUGUUUGCGUAAGUCCGUCUAGUGCACAUUUUGAUGAGACUCAGAAUACAUUGCGUUAUGCAAAUCGAGCAAAAAAUAUUCAAACCAAGGUUACCAGAAACGUAUUCAAUGUAAAUAGGCAUGUCAAGGACUUUUUAGUAAAAAUUGACGAGCAAAUGGCCAUGAUCAACGAUUUAAAAGCUCAACAAAAAGAUUUAGAAACGCUAGCAUUUUCUAAAUUCAAAAAGCAAUGUGAGAAACGAGAAAGUAUCAUGAGAGAAGGAAUUACACGUAUUCGUG
- % decrease =/− SE TP1: 21 ± 7%
- % decrease =/− SE TP2: 19 ± 11%

B4: GS1806: dsRNA trigger SEQ ID NO 181; gene target Serine/threonine-protein kinase SCH9 (nucleic acid)
DNA: GACCAACCACAGCACATTTCAAAGACAAGTACGCCTAATGACCAAAAGTCAACCATCTTAGTATATCCTGTTTCATCTAGGAGAACCTCAGGAGCAAGGTATTCCGTGGTACCACAGAATGTATTTGTCGTCTCATTTTTGGTCAAGTTAGCTTTTGAAAGACCAAAATCACATAAAGCGATATGTCCATTAGCATCGAGCAGAATGTTTTCAGGTTTTAGATCGCGATAAACGATGTCATGTTTGTGAAGGTGCTGGAGAGCCAAAATGAGCTCAGCTATGTAAAATTTTGCTCGCTCTTCACAGAACCTTCCTTCTCTTTGTAAATGCCAAAAAAGTTCGCCTCCAGACATATAATCAGTTACCAAATAGAGATCACTTGGAGTTTGGAATGAAAATTTAAGTCCAACAATGAACTGCGACTCTGCCATAGCTGTTCTGACTAAGATATTTCTTTCGCCAACAGTATGGGCGACCTCTTTCTTTTGTACAATAACCTTTTTCTGAAGGACTTTCATGGCATAAATTCTTCCTGTATCTTTTTTCCTGACTTGATAAACTTGACCAAAAGTTCCTTTTCCTATCAGTTTCAAGAATT
- % decrease =/− SE TP1: 34 ± 7%
- % decrease =/− SE TP2: 21 ± 7%

B5: GS3477 (nucleic acid)
sense: CCUCUCGCCAUUAAAUACUCAUAAAAUAUCCGCACGUACAGUUCUCUUCACUUCGGUACCUGCUAAAUACAGAGAUGAAUCUAAAUUACGUCAGAUAUUUGGCUCAUGCGUGAAAAAGGUUUGGAUAACAAAAGACAGUUCAGAGGUUGACGACCUUGUAUCUGAGCGCGACGAUCUCCUACUAAGAUUAGAAUCAUCUGAAGUUAAGCUUAUUAAAAUUGCAAAUACAGAGAGACUCAAGAUUAACAAGAAAAAAGCUGGAGAUAAUAACUCAUCAUCUGAAGUCGCAGCUCCUGUCCCAGCAUCUCUAGUUGACUACUGGGUUCCAGAAAAUAAGCGUCCGACUCAUAAGCUUGGCUUAUUUGGGCUAGUUGGACAGAAAGUUGAUACGAUUAAAU
antisense: AUUUAAUCGUAUCAACUUUCUGUCCAACUAGCCCAAAUAAGCCAAGCUUAUGAGUCGGACGCUUAUUUUCUGGAACCCAGUAGUCAACUAGAGAUGCUGGGACAGGAGCUGCGACUUCAGAUGAUGAGUUAUUAUCUCCAGCUUUUUUCUUGUUAAUCUUGAGUCUCUCUGUAUUUGCAAUUUUAAUAAGCUUAACUUCAGAUGAUUCUAAUCUUAGUAGGAGAUCGUCGCGCUCAGAUACAAGGUCGUCAACCUCUGAACUGUCUUUUGUUAUCCAAACCUUUUUCACGCAUGAGCCAAAUAUCUGACGUAAUUUAGAUUCAUCUCUGUAUUUAGCAGGUACCGAAGUGAAGAGAACUGUACGUGCGGAUAUUUUAUGAGUAUUUAAUGGCGAGAGG
- % decrease =/− SE TP1: 28 ± 4%
- % decrease =/− SE TP2: 7 ± 8%

B6: GS3457 (nucleic acid)
sense: UCAGGCAAGGGUGGAGUGGGUAAAAGUACAUUUACAACACUGCUUGCACAUGCACUUGCAAAAGACCCGGAAAUUGUGGUUGGUGUCAUGGAUACAGAUAUUUGCGGGCCAAGUAUUCCAAAAAUGAUGGGAGUUGAGGAAGAGAUUAUUCACGUCAGUAAUACAGGAUGGAGUCCAGUUUGGGUACUUGAAAAUCUAGCAGUAAUGAGCGUGCAAUUUAUGCUUCCCAACCGAGAUGAUGCAGUUAUUUGGAGAGGACCAAAGAAAAACGGCCUGAUAAAGCAAUUUUUAAAAGAUGUAGAAUGGGGCGAAAUGGAAUAUUUAUUAGUAGACACUCCACCAGGAACAAGUGAUGAACAUUUGAGUGUCAACACUUUUUUGAAAGAGAGUGGAA
antisense: UUCCACUCUCUUUCAAAAAAGUGUUGACACUCAAAUGUUCAUCACUUGUUCCUGGUGGAGUGUCUACUAAUAAAUAUUCCAUUUCGCCCCAUUCUACAUCUUUUAAAAAUUGCUUUAUCAGGCCGUUUUUCUUUGGUCCUCUCCAAAUAACUGCAUCAUCUCGGUUGGGAAGCAUAAAUUGCACGCUCAUUACUGCUAGAUUUUCAAGUACCCAAACUGGACUCCAUCCUGUAUUACUGACGUGAAUAAUCUCUUCCUCAACUCCCAUCAUUUUUGGAAUACUUGGCCCGCAAAUAUCUGUAUCCAUGACACCAACCACAAUUUCCGGGUCUUUUGCAAGUGCAUGUGCAAGCAGUGUUGUAAAUGUACUUUUACCCACUCCACCCUUGCCUGA
- % decrease =/− SE TP1: 13 ± 4%

B7: GS3467 (nucleic acid)
sense: CCCAGCUUCAUUAGAGUGGUCAAAGAAACCAUUGUAGGUGUGAAUAGGAGGCUGAACUAGAGAUAAGAUGGUAUUAUGCAGAAUAUGACAAGUAGGAUUGCAUUGCUUAUCUUUAAUAAUCUCUCUCUUAAUUGUUAUCUUAGAAGCAAAGUUAGUUUCAUCAUCGCUUAAUUUUAAAUUAAUAAGUGAAACUUUGCUUCCAUAAGGUGAGCUACAAGGUGAUGGCUGAAUUAAAUCUUCAACUUUUUUAUUAUCAGUCCUUAUUUCUAGGUCAUAUGACCUAGAAUCUUCUAUAAAUUUUCUAAGCUUAUUUGAAGAAUCCUUAGUAGGUGUUUUUGCAAUGAAACGAUUAUUUUCUUCAGGUAAGAUUGUAGCGACGCUAACCGAUGACUCAGU
antisense: ACUGAGUCAUCGGUUAGCGUCGCUACAAUCUUACCUGAAGAAAAUAAUCGUUUCAUUGCAAAAACACCUACUAAGGAUUCUUCAAAUAAGCUUAGAAAAUUUAUAGAAGAUUCUAGGUCAUAUGACCUAGAAAUAAGGACUGAUAAUAAAAAAGUUGAAGAUUUAAUUCAGCCAUCACCUUGUAGCUCACCUUAUGGAAGCAAAGUUUCACUUAUUAAUUUAAAAUUAAGCGAUGAUGAAACUAACUUUGCUUCUAAGAUAACAAUUAAGAGAGAGAUUAUUAAAGAUAAGCAAUGCAAUCCUACUUGUCAUAUUCUGCAUAAUACCAUCUUAUCUCUAGUUCAGCCUCCUAUUCACACCUACAAUGGUUUCUUUGACCACUCUAAUGAAGCUGGG
- % decrease =/− SE TP1: 25 ± 4%
- % decrease =/− SE TP2: 13 ± 7%
